Changes are numbered by the printed parent chain. Names and notes keep the numbering of the source.
B1: G88P3: 1395-bp shortened derivative of G88P2 promoter (SEQ ID NO: 45) (nucleic acid, listed as Homo sapiens)
DNA: TCTAGATGTACCACTGACATCTGCTTTAAATCTTTTGCCCATTTCATTTTTACCCTCTAACCATTTCATTACTAAAACACAAAACAAACTCCGGAAAGGAGTTTGTTGATGAGAAAACACTGAAAGTACGATTTAAATTGAGGAATGGAGATTTTCTGTGGATAATTGTCTATGTTCCACTTTACCAAAGAAAAATGAATTTCAAGTAGTGCATAAAGTAATTCTCGTTAAAAAATGTGGGAATAAAGAGATCAGTCCTGGGTACTGGGAATATATTTATCTCACAGAAAAATCTTGCCCACAAAATGCATCAGACTGAGATGAAATACTCTAGGGTATATTAAATTTTATTCTAATATTGAAGGGAGGGAAAAAAAGGACGGAAAGAAAAATGAAACAGGATGAAAAATAAGGTGATTGGGAGAGAGAAAAGACAGAGAAACTTGTTAACGACAGGACTTTCTGAGCAAGATATTTTTCTTCCTTTTACAAGTTGGAAGCTATTGAATAATTCATGCCAAGCGTGGAAAGGCTGTCTTTTCCCTGGATGATGTATAACTAAGCAGGAGAGAGCTTCGAGTGGGTTCACCACATCAGCCACCACTCCTGCTTCTGAGCACAGGGTGCTCTCCTCTTGAGCTCAGCTTCTGCTTTTGCAGCCAAGCATTCTTGCTGCTGCTGCCTGCCTGCCCACCCGCCTGGGCTTGCAGCCCGCCACTTTACTTTCTCCAGCCCTGATACCAGCTGAGAAGTCTCCCTGCAGCTGCTAGTTCCTGCCCAGGACCATGTGTGTGGATGCTGCTTGGGAGAAGCGGGCACTTGCTCCTGGCACTGATCCCAGCTGAGTTTCTCCTGTTGATTTCTGGACCACTGATGCTGTTGCTGAGGAGGTATTTCCCGGCATCCCTCCCCCTGAGACACCGGCTAAGGACCAGCCTAAACGCAAGGTAACCTTCACCTCTTTCCCATGGGATTTTCCCCAGCTGGGATATCTCTGCTTTCTCCTGGAACTAGGTCCTCCAGCTGGCAACATATCTCTCTCTCTCTCTCTCTCTCTCTCTCTCTCTCTCTGTGTGTGTGTGTGTGTGTTGGGGGAGAAGAGGAGACTGTTTTAGGTATTGCTCTGTCCTAGGGCTTCCCCGATACCTGCTGAATCCAATGCAAAGTGGCCTTTCCCCTGGCTCTGGAGACATTTCCGAGGCAGGCACCTGTCATTTGCCACCCCCGTCCTCCTCCTCGAGCTCCCTTTCTCCCCCTCCCCCAGCCCATTATTCTGCTTCAGCCTTTTGTGTCAGTGGCAGAGGGCTGAAGGGATGTCTTTGCCCTTCTGGCAGGCAGGACAGTGTCAGGATGGACCGCGCTGCCAGAAGCCGACGCTAGCGAGGGAGGTGTGAA
B2: G88P7: 896-bp shortened derivative of G88P2 promoter (SEQ ID NO: 46) (nucleic acid, listed as Homo sapiens)
DNA: ATGCCAAGCGTGGAAAGGCTGTCTTTTCCCTGGATGATGTATAACTAAGCAGGAGAGAGCTTCGAGTGGGTTCACCACATCAGCCACCACTCCTGCTTCTGAGCACAGGGTGCTCTCCTCTTGAGCTCAGCTTCTGCTTTTGCAGCCAAGCATTCTTGCTGCTGCTGCCTGCCTGCCCACCCGCCTGGGCTTGCAGCCCGCCACTTTACTTTCTCCAGCCCTGATACCAGCTGAGAAGTCTCCCTGCAGCTGCTAGTTCCTGCCCAGGACCATGTGTGTGGATGCTGCTTGGGAGAAGCGGGCACTTGCTCCTGGCACTGATCCCAGCTGAGTTTCTCCTGTTGATTTCTGGACCACTGATGCTGTTGCTGAGGAGGTATTTCCCGGCATCCCTCCCCCTGAGACACCGGCTAAGGACCAGCCTAAACGCAAGGTAACCTTCACCTCTTTCCCATGGGATTTTCCCCAGCTGGGATATCTCTGCTTTCTCCTGGAACTAGGTCCTCCAGCTGGCAACATATCTCTCTCTCTCTCTCTCTCTCTCTCTCTCTCTCTCTCTCTGTGTGTGTGTGTGTGTGTTGGGGGAGAAGAGGAGACTGTTTTAGGTATTGCTCTGTCCTAGGGCTTCCCCGATACCTGCTGAATCCAATGCAAAGTGGCCTTTCCCCTGGCTCTGGAGACATTTCCGAGGCAGGCACCTGTCATCTGCCACCCCCGTCCTCCTCCTCGAGCTCCCTTTCTCCCCCTCCCCCAGCCCATTATTCTGCTTCAGCCTTTTGTGTCAGTGGCAGAGGGCTGAAGGGATGTCTTTGCCCTTCTGGCAGGCAGGACAGTGTCAGGATGGACCGCGCTGCCAGAAGCCGACGCTAGCGAGGGAGGTGTGAAGAGTTGGCCAG
B3: AAV8R2: AAV8R capsid mutant N411S (SEQ ID NO: 3) (protein)
chain: MAADGYLPDWLEDNLSEGIREWWALKPGAPKPKANQQKQDDGRGLVLPGYKYLGPFNGLDKGEPVNAADAAALEHDKAYDQQLQAGDNPYLRYNHADAEFQERLQEDTSFGGNLGRAVFQAKKRVLEPLGLVEEGAKTAPGKKRPVEPSPQRSPDSSTGIGKKGQQPARKRLNFGQTGDSESVPDPQPLGEPPAAPSGVGPNTMAAGGGAPMADNNEGADGVGSSSGNWHCDSTWLGDRVITTSTRTWALPTYNNHLYKQISNGTSGGATNDNTYFGYSTPWGYFDFNRFHCHFSPRDWQRLINNNWGFRPKRLSFKLFNIQVKEVTQNEGTKTIANNLTSTIQVFTDSEYQLPYVLGSAHQGCLPPFPADVFMIPQYGYLTLNDGSQAVGRSSFYCLEYFPSQMLRTGNSFQFTYTFEDVPFHSSYAHSQSLDRLMNPLIDQYLYYLSRTQTTGGTANTQTLGFSQGGPNTMANQAKNWLPGPCYRQQRVSTTTGQNNNSNFAWTAGTKYHLNGRNSLANPGIAMATHKDDEERFFPSNGILIFGKQNAARDNADYSDVMLTSEEEIKTTNPVATEEYGIVADNLQRGNLADQDYTKTARQAATADVNSQGALPGMVWQNRDVYLQGPIWAKIPHTDGNFHPSPLMGGFGLKHPPPQILIKNTPVPADPPTTFNQSKLNSFITQYSTGQVSVEIEWELQKENSKRWNPEIQYTSNYYKSINVDFAVNTEGVYSEPRPIGTRYLTRNL
B4: AAV8R3: AAV8R capsid mutant Y447F (SEQ ID NO: 4) (protein)
chain: B3 chain with S411N, Y447F

How the values were obtained:
[1] = tested on: striatonigral projection neurons (striatal MSNs); test: Retrograde labeling of striatal MSNs after AAV injection into the SNr (EYFP+ cell counting); assay type: in vivo, mice; details: for reporter-labeled MSNs by promoter (FIG. 4B): SNr injection, n=3 mice, mean±SEM; for Activity Level STR: striatum, numbers of YFP-expressing neurons per animal; for labeled MSNs per mouse: viruses expressing EYFP, injection into the SNr (FIG. 4B); for Labeling Efficiency in Striatonigral Pathway: AAV8R capsid mutants, numbers of labeled neurons per animal
Source text: (§1) Brain profiles of two epigenetic marks for enhancers and promoters, monomethylation of histone H3 lysine 4 (H3K4me1) and acetylation of histone H3 lysine 27 (H3K27ac) were checked and approximately 2 kilobase-long sequences around the transcriptional start site (TSS) that have high levels of H3K4me1 and/or H3K27ac were identified in mouse brain. Homologous sequences at equivalent positions of the human genome were then cloned onto an AAV backbone, and the activity of the homologous sequences in directing reporter expression was tested in mice after injections of AAVs into the SNr (FIG. 3A-C, TABLE 3).
(§2) Mice were anesthetized with sodium pentobarbital (Nembutal; 80 mg/kg, i.p.), and then placed into a stereotaxic device (KOPF). Eye cream was applied on both corneas to avoid dehydration. The skull above the targeted areas was thinned with a dental drill and carefully removed. Injections were conducted with a 10 μL syringe connected to a 33-Gauge needle (Neuros; Hamilton), using a microsyringe pump (Legato 130, KD Scientific). A total volume of 200 nL virus was injected into the SNr at a speed of 20 nL/min. The coordinates for the SNr were 3.4 mm posterior, 1.3 mm lateral, 4.8 mm ventral to the bregma.
(§3) Images were acquired using a confocal microscope (Carl Zeiss, LSM880) and an Axiolmager.Z1 microscope with apotome (Carl Zeiss). Brain structures were identified microscopically and in digital photos using a mouse brain atlas. To analyze the number of EYFP+ cells in the striatum, slices from rostral to caudal striatum were used. Every sixth section was analyzed, and numbers of EYFP+ cells were multiplied by six to acquire the approximate total number and mean number of cells per animal. Images were processed using ImageJ (NIH, USA), and final quantifications were independently performed manually by two blinded experimenters.

[2] = tested on: substantia nigra; test: Promoter activity level in substantia nigra after AAV injection into the SNr; assay type: in vivo, mice; details: numbers of YFP-expressing neurons per animal
Source text: as §1, §2, §3

Row | Molecule | reporter-labeled MSNs by promoter (FIG. 4B) [1] | Activity Level STR [1] | Activity Level SN [2] | labeled MSNs per mouse [1] | Labeling Efficiency in Striatonigral Pathway [1]
1 | G88P2: 2259-bp promoter from the gene GPR88 (SEQ ID NO: 44) | 36290±3705 | ++++ (>25k) | + (<5k) | – | –
2 | R9P1: tested promoter from gene RGS9, 2152 bp (SEQ ID NO: 47) | – | +++ (10k-25k) | + (<5k) | – | –
3 | B1 | 37026±6646 | ++++ (>25k) | + (<5k) | 3.7±0.66 ×104 MSNs per mouse | –
4 | B2 | 39460±7281 | ++++ (>25k) | + (<5k) | 3.95±0.73 ×104 MSNs per mouse | –
5 | B3 | – | – | – | – | + (<5k)
6 | B4 | – | – | – | – | + (<5k)

— patent US20250381307A1, “RETRO-AAV AND USE IN TREATING NEURODEGENERATIVE DISEASES” (priority 2023, published 2025)
